Data on 4 molecules can be found in article PMC3813506 (2013).

In data set [1] the target is Nupr1-Flag (pcDNA3-Nupr1-Flag) (UniProt O60356). Briefly: proximity ligation; MiaPaCa-2 cells transfected with Nupr1-Flag and MSL1-V5, treated with cisplatin (5 µM or 10 µM) for 24 h; DuoLink kit; also combined with γ-H2AX staining.
Data set [2] addresses T1, Nupr1 (Homo sapiens, UniProt O60356).
T1 chain: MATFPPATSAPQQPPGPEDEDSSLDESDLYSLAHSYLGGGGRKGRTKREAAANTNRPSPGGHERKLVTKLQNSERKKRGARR
Briefly: ITC; 40 µM MSL1 injected into 4 µM Nupr1 in the cell; 25°C, 10 mM acetate buffer pH 4.5; single-site binding model; heat of dilution of MSL1 used as reference. (In general: In ITC the heat of successive injections is recorded.)

In data set [3] the test system is TRX-MSL1;Nupr1 (Homo sapiens;). Briefly: ITC. Particulars: MSL1 titrated into preformed Nupr1 + damaged-DNA complex; dH 28 kcal/mol; chemically damaged with etoposide; ITC: 10 mM acetate pH 4.5, 25 C, 0.03 mg/ml damaged DNA; CD/fluorescence: 50 mM acetate pH 4.5, 25 C, 20 uM protein; agarose gel: 2%, 1x TAE; NMR 25 C.
Data set [4] deals with T2, TRX-MSL1 (Homo sapiens).
T2 sequence: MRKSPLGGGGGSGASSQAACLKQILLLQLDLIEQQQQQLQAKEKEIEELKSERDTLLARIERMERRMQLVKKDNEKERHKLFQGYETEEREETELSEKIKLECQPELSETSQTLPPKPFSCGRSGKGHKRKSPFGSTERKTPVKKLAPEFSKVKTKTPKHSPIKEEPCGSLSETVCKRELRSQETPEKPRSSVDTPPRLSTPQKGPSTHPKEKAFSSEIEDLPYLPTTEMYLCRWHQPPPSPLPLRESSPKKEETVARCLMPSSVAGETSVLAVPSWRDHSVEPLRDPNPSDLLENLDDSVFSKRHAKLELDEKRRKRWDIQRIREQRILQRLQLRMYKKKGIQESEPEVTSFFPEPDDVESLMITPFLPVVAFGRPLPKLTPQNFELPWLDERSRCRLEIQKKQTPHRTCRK
The experiment in a line: ITC. The conditions noted are these: apparent; dH 29 kcal/mol; DNA MW assumed (10^4 kDa); chemically damaged with etoposide; ITC: 10 mM acetate pH 4.5, 25 C, 0.03 mg/ml damaged DNA; CD/fluorescence: 50 mM acetate pH 4.5, 25 C, 20 uM protein; agarose gel: 2%, 1x TAE; NMR 25 C.

The test system of data set [5] is Nupr1. Briefly: ITC. Particulars: apparent; dH -23 kcal/mol; DNA MW assumed (10^4 kDa); chemically damaged with etoposide; ITC: 10 mM acetate pH 4.5, 25 C, 0.03 mg/ml damaged DNA; CD/fluorescence: 50 mM acetate pH 4.5, 25 C, 20 uM protein; agarose gel: 2%, 1x TAE; NMR 25 C.
Data set [6] has as its target T1, Nupr1. Briefly: ITC.

As for “MSL1-V5 (pcDNA4-MSL1-V5) (from UniProt Q68DK7 1-614) (natural protein)”, in data set [1], the PLA dots (PLA combined with γ-H2AX staining, cisplatin) was 53 PLA dots; the PLA dots per nucleus (5 µM cisplatin) (dots PLA per nucleus) was found to be 32; the PLA dots per nucleus (10 µM cisplatin) (dots PLA per nucleus) is 57.
Consider “TRX-tagged MSL1 (His-tagged TRX-MSL1 fusion protein, human MSL1, 413-residue-long differentially spliced isoform) (natural protein)”, for which, in data set [2], the Kd was 2800 nM and the dH turned out to be 39 kcal/mol.
As for etoposide-damaged DNA, the figures for the Kd in data set [3], in data set [4] and in data set [5] were 800 nM, 1200 nM and 400 nM, respectively.

B1: MSL1 (protein)
chain: MTMRSAVFKAAAAPAGGNPEQRLDYERAAALGGPEDEPGAAEAHFLPRHRKLKEPGPPLASSQGGSPAPSPAGCGGKGRGLLLPAGAAPGQQEESWGGSVPLPCPPPATKQAGIGGEPAAAGAGCSPRPKYQAVLPIQTGSLVAAAKEPTPWAGDKGGAASPAATASDPAGPPPLPLPGPPPLAPTATAGTLAASEGRWKSMRKSPLGGGGGSGASSQAACLKQILLLQLDLIEQQQQQLQAKEKEIEELKSERDTLLARIERMERRMQLVKKDNEKERHKLFQGYETEEREETELSEKIKLECQPELSETSQTLPPKPFSCGRSGKGHKRKSPFGSTERKTPVKKLAPEFSKVKTKTPKHSPIKEEPCGSLSETVCKRELRSQETPEKPRSSVDTPPRLSTPQKGPSTHPKEKAFSSEIEDLPYLSTTEMYLCRWHQPPPSPLPLRESSPKKEETVARCLMPSSVAGETSVLAVPSWRDHSVEPLRDPNPSDLLENLDDSVFSKRHAKLELDEKRRKRWDIQRIREQRILQRLQLRMYKKKGIQESEPEVTSFFPEPDDVESLMITPFLPVVAFGRPLPKLTPQNFELPWLDERSRCRLEIQKKQTPHRTCRK
modifications: Nupr1 preformed complex with etoposide-damaged DNA
B1 returned a Kd in data set [6] of 800 nM.
